From the RNAGym collection of RNA variant scans (doi:10.7554/elife.80360)

B1: Twister Ribozyme (parent)
chain: AACACUGCCAAUGCCGGUCCCAAGCCCGGAUAAAAGUGGAGGGGGCGG

Variants of: B1
Experiment: self-cleavage, relative activity (ratio to wild type); higher = more cleavage; co-transcriptional

Row | Variant | self-cleavage
1 | AACACUGCCAAUGCCGGUCCUAAGCCCGGAUAAAAGUAGAGGGGGCGG | 0.0657
2 | AACACUCGCAAUGCCGGUCCCAAGCCCGGAUAAAAGUGGAGGGGGCGG | 0.0684
3 | UACACUGCCAAUGCCGGUUCCAAGCCCGGAUAAAAGUGGAGGGGGCGG | 0.0395
4 | AGCACUGCCAAUGGCGGUCCCAAGCCCGGAUAAAAGUGGAGGGGGCGG | 0.136
5 | AACACUGCCAAUGCCGGUCCCAAGCCCGGAUAAAAGUGGAGUGGCCGG | 0.203
6 | AACACUGCCAAUGCCGGUCCCAAGCCCACAUAAAAGUGGAGGGGGCGG | 0.71
7 | AACACUGCCAAUGCCGAUCCCAAGCCCGGAUAAAAGUGGACGGGGCGG | 0.164
8 | AACACUGCCGAUGCCGGUCCCAAGCCCGGAUAAAAGUGGAGGGGGCGA | 0.902
9 | AACACUGCCAAUGCCGGUCCCAAGCCCGGAUACAAGUGUAGGGGGCGG | 0.21
10 | AACACGGCCAAUGCCGGUCCCAAGCCCGGAUAAAAGUGGAGCGGGCGG | 0.156
11 | AACACUGCCAAUGCCGGUCCCAAGCCCGGAUCAGAGUGGAGGGGGCGG | 0.761
12 | AGCACUGCCAAUGCCAGUCCCAAGCCCGGAUAAAAGUGGAGGGGGCGG | 0.208
13 | AACACUGCCAAUGCCGGUCCCAAGCCCGGAUAAAAAGGGAGGGGGCGG | 0.32
14 | AAAACUGCCAAUGCCGGUCCCAAGCCCGGAUAAAAGAGGAGGGGGCGG | 0.201
15 | AACUCUGCCAAUGCCGGUCCCAAGCCCGGGUAAAAGUGGAGGGGGCGG | 0.176
16 | AACACUGCCAAUGCCGGUCCCAAGCCCGGAUAAAAGUGGAGGGAGCUG | 0.922
17 | AACACUGCCAAUGCCGGUCCCAAACCCGGACAAAAGUGGAGGGGGCGG | 0.0777
18 | AACACUGCCAAUGCCGGUCCCAAGGCCGGAUAAAAGUGGACGGGGCGG | 0.133
19 | AACACUGCCAAUGCCGGUCCCAAGGCCGGAUAAAAGUGGAUGGGGCGG | 0.133
20 | AACACUGCCAAUGCCGGUCCCAAGCCCGGAUAAAGGUGGAGGCGGCGG | 0.16
21 | AACACUGCCAAUGCCGGACCCAAGCCCGGAUAAAAGGGGAGGGGGCGG | 0.137
22 | AACACUGCGAAUGCCGGUCCCAAGCCCGGAAAAAAGUGGAGGGGGCGG | 0.648
23 | AACACUGCCAAUGCCGGUCCCUAGCCCGGAUAAAAGUGCAGGGGGCGG | 0.115
24 | AACACUGCUAAUGCCGGUCCCAAGCCCGGAUAAAAGUAGAGGGGGCGG | 0.177
25 | AACACGGCCAAUGCCGGUCCCAAGCCCGGUUAAAAGUGGAGGGGGCGG | 0.687
26 | AUCACUGCCAAUGCCGGUCCCAUGCCCGGAUAAAAGUGGAGGGGGCGG | 0.106
27 | AACACUGCCAAUGCCGGUCCCAAGCCCGAAGAAAAGUGGAGGGGGCGG | 0.926

Row | Variant | self-cleavage
28 | AACACUGCCAAUGCGGGUCCCAAGCCCGGAUAGAAGUGGAGGGGGCGG | 0.0911
29 | AACACUGCCAAUGCCGGUCCCUAGCCCAGAUAAAAGUGGAGGGGGCGG | 0.485
30 | AACACUGCCAAUGCCGUUCCCAAUCCCGGAUAAAAGUGGAGGGGGCGG | 0.0893
31 | AACACCGCCAAUGCCGGUCCCAAGCCCGGAUAAAAGUGUAGGGGGCGG | 0.114
32 | AACACUGCCAAUGCCGGUCCCAAGCCCGGAUAAAAGUGGGGGGGGCCG | 0.192
33 | AACACUGCCAAUGCCGGUCCCAAGCCCGGAUAAAAGGGGAGGGGACGG | 0.544
34 | AACACUGACAAUGCCGGUCCCAAGCCCGGAUCAAAGUGGAGGGGGCGG | 0.42
35 | AUCACUGCCAAUGCCGGUCCCAAGCCCGCAUAAAAGUGGAGGGGGCGG | 0.195
36 | AACACUGCCAAUGCCGGUCCCAAGCCCGGAGAAAAGUGGAGGGUGCGG | 0.882
37 | AACACUGCCAAUGCGGGUCCCCAGCCCGGAUAAAAGUGGAGGGGGCGG | 0.0849
38 | GACACUGCCAAUGCCGGUCCCAAGCCCGGAUAAAAGUGGAGGGGGCGG | 0.461
39 | UACACUGCCAAUGCCGGUCCCAAGCCCGGAUAAAAGUGGAGGGGGCGG | 0.0597
40 | AACACUGCAAAUGCCGGUCCCAAGCCCGGAUAAAAGUGGACGGGGCGG | 0.123
41 | AACACUGCCAAUGCCGGUACCAAGCCCGGAUAAAAGAGGAGGGGGCGG | 0.0721
42 | AACACUGCCAAUGCGGGUCCCAAGCCCGGAUAAAAGUGGAGGGGGAGG | 0.0745
43 | AGCACUGCCAAUGCCGGUCCCAAGCCCGGAUAAAAGUGGAGGGCGCGG | 0.212
44 | AUCACUGCCAAUGCCGGUCCCAAGCUCGGAUAAAAGUGGAGGGGGCGG | 0.069
45 | AACACUGCCAAUGACGGUCCCAAGCCCGGAUAAAAGUGGAAGGGGCGG | 0.591
46 | AACACUGCCAAUGCCGGUCCCGAGCGCGGAUAAAAGUGGAGGGGGCGG | 0.0488
47 | AACACUGCCAAUGCCGGUCCCAAGCCCGGAAAAAAGUGAAGGGGGCGG | 0.343
48 | AACACUGCCUAUGCCGGUCCCAAGCCCGGAUGAAAGUGGAGGGGGCGG | 0.896
49 | AACACUGCCAAUGCCGGUCCCAAGGCCGGAUAAAAGCGGAGGGGGCGG | 0.102
50 | AACACUGCCAAUGCCGGUACCAAGCCCGGAUAAAAGUGGAGGUGGCGG | 0.732
51 | AACACUGCCAAUCCCGGUCCCAAGCCCGGAUAAAAGUGGAGGGGGAGG | 0.232
52 | AACACUGCCAAUGCCGGUCCCAAGCCCGGAUCAAAGUGGAGGGGACGG | 0.95
53 | AACACUGCCAAUGCCGGUCCCCAGCCCGGAUAAAAGUGGAAGGGGCGG | 0.326
54 | AACACUGCCAAUGCCGGUCCCAAGCUCGGAUAAAAGUGCAGGGGGCGG | 0.0911
